Target: phosphorylated JAK2 (UniProt O60674)
Test: co-immunoprecipitation (IP p-JAK2, IB c-Mpl) with densitometry
Conditions: HEK293T cells; 20 ng/mL TPO stimulation; parent: est. 1.3; read off a plot

Chain of UniProt O60674 (O60674 whole entry): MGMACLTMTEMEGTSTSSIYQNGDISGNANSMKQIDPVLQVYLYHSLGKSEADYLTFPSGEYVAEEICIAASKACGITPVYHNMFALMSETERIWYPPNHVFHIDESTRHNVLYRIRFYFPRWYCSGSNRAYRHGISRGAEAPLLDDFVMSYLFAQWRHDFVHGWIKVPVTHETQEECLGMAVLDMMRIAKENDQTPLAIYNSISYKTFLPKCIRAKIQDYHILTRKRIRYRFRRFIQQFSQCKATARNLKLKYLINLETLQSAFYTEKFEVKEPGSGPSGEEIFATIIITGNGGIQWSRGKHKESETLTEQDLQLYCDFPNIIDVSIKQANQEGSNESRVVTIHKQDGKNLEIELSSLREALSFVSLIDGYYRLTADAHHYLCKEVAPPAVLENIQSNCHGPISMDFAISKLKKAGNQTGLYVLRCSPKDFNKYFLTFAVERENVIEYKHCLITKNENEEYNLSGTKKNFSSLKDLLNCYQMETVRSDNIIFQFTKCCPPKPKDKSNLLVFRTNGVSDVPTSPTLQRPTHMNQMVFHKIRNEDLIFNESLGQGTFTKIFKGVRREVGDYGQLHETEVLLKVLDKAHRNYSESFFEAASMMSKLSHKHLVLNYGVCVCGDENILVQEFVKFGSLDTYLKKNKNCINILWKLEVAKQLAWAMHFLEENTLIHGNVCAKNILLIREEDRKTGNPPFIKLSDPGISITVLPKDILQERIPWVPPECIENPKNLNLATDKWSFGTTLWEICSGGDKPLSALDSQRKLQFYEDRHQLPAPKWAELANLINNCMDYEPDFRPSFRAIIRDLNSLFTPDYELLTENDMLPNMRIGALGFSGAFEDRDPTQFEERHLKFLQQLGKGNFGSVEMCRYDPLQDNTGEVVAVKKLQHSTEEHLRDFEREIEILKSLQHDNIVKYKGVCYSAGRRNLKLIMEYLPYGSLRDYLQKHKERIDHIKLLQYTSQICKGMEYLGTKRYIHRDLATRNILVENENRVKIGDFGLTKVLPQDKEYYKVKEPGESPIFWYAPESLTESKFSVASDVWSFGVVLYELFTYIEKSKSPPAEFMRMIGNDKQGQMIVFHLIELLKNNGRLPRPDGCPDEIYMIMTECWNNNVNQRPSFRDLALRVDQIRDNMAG

Row | Substance | response
1 | c-Mpl-del (c-Mpl alternative splicing isoform with a 24 amino acid deletion in the extracellular region) Y567F | 0.54
2 | c-Mpl-del (c-Mpl alternative splicing isoform with a 24 amino acid deletion in the extracellular region) Y602F | 0.44
3 | c-Mpl-del (c-Mpl alternative splicing isoform with a 24 amino acid deletion in the extracellular region) Y607F | 0.18
